Two molecules from patent publication CN112745392A (SHANGHAI NOVAMAB BIOPHARMACEUTICALS CO LTD, dated 2021) can be followed below.

Assay [1] concerns the target T1, hCD47(ECD)-Fc (human, UniProt Q08722 19-139).
T1 construct: extracellular domain; not shown: Fc part not described
Description: BLI (Fortebio Red96), Protein A probes, 30℃.

Assay [2] has as its target T2, 人CD47 (Jurkat细胞, 高表达人CD47) (human, UniProt Q08722 19-323).
T2 construct: whole, on cells
Description: flow cytometry competition against hSIRPa(ECD)-Fc-Biotin on Jurkat cells.

Assay [3] deals with T3, hPD-L1(ECD)-Fc (human, UniProt Q9NZQ7 19-238).
T3 construct: extracellular domain; also called 重组人PD-L1; not shown: Fc part not described
T3 sequence (Q9NZQ7 19-238): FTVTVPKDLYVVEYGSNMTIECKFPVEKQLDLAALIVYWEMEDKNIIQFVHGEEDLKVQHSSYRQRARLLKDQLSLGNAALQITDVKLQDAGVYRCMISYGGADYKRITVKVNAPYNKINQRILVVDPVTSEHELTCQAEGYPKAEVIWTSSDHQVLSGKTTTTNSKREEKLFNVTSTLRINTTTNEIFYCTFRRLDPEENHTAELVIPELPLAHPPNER
Description: BLI (Fortebio Red96), Protein A probes, 30℃.

T2 sequence (Q08722 19-323): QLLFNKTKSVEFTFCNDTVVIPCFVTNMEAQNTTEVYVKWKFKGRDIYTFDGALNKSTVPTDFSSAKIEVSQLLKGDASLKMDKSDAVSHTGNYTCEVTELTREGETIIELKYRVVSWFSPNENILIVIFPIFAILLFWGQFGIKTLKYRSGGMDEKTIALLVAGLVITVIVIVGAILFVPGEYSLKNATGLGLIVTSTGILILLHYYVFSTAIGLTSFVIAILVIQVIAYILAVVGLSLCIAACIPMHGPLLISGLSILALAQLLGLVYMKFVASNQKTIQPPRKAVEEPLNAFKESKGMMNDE
T1 sequence (Q08722 19-139): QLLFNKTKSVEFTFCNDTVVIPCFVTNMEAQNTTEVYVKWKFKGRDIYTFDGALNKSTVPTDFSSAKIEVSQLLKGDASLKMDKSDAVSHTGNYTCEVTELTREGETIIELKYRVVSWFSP

B1: CD47单域抗体Fc融合蛋白(Nb-Fc) (Fc fusion)
chain: QVQLQESGGGLVQPGGSLRLSCAASGYAYTSDCMGWFRQTPGKGLEGVALIYTPGASTNYADSVKGRFTISQDNSKSTVYLQMNSLRAEDTAMYYCAARRGACSLRLPFFYWGQGTLVTVSS
notes: Control; also called CD47 Nb-Fc; 原始CD47单域抗体; not shown: Fc part (and any hinge or linker) of the control fusion is not described
B1 came in with a Kd in assay [1] of 6.13 nM. For the same molecule, the IC50 in assay [2] turned out to be 4.49 nM.

B2: PD-L1单域抗体Fc融合蛋白(Nb-Fc) (Fc fusion)
chain: QVQLQESGGGLVQPGGSLRLSCTASGYNLSPSCMGWFRQAPGKGLEGVAFTDADGSTRYADSVKARFTISRDNSKNTLYLQMNSLRAEDTAVYYCAADFFSYCSVVFRASARDKYRGQGTLVTVSS
notes: Control; also called PD-L1 Nb-Fc; 原始PD-L1单域抗体; not shown: Fc part (and any hinge or linker) of the control fusion is not described
B2 displayed a Kd in assay [3] of 26.5 nM.
